According to patent US20210395322A1 (OSR, published 2021):

Biological target: T1, Noggin (UniProt Q13253 28-232, limits assumed)
T1 sequence (looked up): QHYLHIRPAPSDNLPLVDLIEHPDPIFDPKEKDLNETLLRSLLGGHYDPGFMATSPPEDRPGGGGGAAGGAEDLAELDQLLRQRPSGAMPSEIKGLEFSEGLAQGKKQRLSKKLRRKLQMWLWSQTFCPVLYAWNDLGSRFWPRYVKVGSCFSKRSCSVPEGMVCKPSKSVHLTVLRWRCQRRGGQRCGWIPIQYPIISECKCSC
Assay: size-exclusion chromatography of the AB204 and Noggin mixture

B1: AB204 (ligand)
chain: MQAKHKQRKRLKSSCKRHPLYVDFSDVGWNDWIIAPSGYHANYCDGECPFPLADHLNSTNHAIVQTLVNSVNSKIPKACCVPTKLRPMSMLYYDDGQNIIKKDIQNMIVEECGCS
notes: also called Noggin-insensitive chimera AB204
binding result: no binding
